How the values were obtained:
[1] = target: IgG control; assay: phage ELISA
Method in brief: (§1)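 Camel VHH phage from libraries of eight individual camels went through 3 rounds of panning on recombinant B7H3-Fc protein. The recorded ELISA signal reflects binding of the selected phage to immobilised human or other-species B7H3, or to control proteins, in a phage ELISA.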

[2] = target: T1, hB7H3-His (human, UniProt Q5ZPR3 29-461, limits assumed); assay: ELISA, purified VHH
T1 construct: not shown: His tag
T1 sequence (looked up): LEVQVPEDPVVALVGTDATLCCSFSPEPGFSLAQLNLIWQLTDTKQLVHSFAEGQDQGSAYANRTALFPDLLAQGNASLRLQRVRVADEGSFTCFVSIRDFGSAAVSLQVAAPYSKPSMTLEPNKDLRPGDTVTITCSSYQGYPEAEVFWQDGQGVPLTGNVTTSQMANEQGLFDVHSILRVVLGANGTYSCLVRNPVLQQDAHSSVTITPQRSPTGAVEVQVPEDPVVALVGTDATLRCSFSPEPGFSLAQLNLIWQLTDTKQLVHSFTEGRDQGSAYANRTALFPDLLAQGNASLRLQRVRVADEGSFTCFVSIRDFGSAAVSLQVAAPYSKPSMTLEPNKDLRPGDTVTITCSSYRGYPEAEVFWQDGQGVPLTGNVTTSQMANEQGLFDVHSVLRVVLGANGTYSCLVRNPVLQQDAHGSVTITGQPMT
Method in brief: (§2)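 Camel VHH nanobodies were isolated by phage panning on recombinant B7H3-Fc. After purification, their binding to immobilised B7H3 fusion proteins and non-B7H3 recombinant proteins was read out by ELISA and recorded as signal.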

[3] = target: T2, monkey B7H3-His (monkey); assay: ELISA, purified VHH
T2 chain: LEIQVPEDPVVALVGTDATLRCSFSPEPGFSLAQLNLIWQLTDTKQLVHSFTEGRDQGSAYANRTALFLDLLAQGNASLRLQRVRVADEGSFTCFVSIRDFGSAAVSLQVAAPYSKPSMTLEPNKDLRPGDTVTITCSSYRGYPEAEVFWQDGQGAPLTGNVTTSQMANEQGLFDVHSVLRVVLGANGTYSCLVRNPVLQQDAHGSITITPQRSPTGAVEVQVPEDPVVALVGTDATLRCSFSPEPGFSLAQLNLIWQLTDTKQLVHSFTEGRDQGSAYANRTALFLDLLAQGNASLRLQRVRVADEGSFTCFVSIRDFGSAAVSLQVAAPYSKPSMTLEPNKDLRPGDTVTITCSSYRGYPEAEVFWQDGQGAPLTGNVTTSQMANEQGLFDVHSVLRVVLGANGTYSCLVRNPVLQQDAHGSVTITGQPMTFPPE
Method in brief: as §2

[4] = target: T1, hB7H3-His; assay: ELISA, purified VHH; remark: listed apart in the source
Method in brief: as §2

[5] = target: T3, rat B7H3-His (rat, UniProt Q7TPB4 29-244, limits assumed); assay: ELISA, purified VHH
T3 construct: not shown: His tag
T3 sequence (looked up): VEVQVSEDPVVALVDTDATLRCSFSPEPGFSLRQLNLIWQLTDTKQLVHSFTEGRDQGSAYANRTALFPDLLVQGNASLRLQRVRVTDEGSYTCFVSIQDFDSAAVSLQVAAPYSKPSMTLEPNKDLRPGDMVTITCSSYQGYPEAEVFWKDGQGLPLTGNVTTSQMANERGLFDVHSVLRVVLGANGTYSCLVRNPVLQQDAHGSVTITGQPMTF
Method in brief: as §2

[6] = target: Non-relevant antigen; assay: ELISA, purified VHH
Method in brief: as §2

[7] = target: T2, monkey B7H3-His; assay: phage ELISA, cross-species
Method in brief: as §1

[8] = target: T3, rat B7H3-His; assay: phage ELISA, cross-species
Method in brief: as §1

[9] = target: T4, mouse B7H3-His (mouse, UniProt Q8VE98 29-244, limits assumed); assay: phage ELISA, cross-species
T4 construct: also called recombinant mouse B7H3-His protein; not shown: His tag
T4 sequence (looked up): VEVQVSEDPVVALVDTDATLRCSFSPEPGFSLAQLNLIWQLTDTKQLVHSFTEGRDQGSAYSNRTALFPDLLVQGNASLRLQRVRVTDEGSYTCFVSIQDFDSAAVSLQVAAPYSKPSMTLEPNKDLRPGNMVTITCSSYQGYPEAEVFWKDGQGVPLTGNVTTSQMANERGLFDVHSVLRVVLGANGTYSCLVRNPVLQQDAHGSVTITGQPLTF
Method in brief: as §1

[10] = target: T5, human B7H3 (human, UniProt Q5ZPR3 29-466, limits assumed); assay: phage ELISA, cross-species
T5 construct: also called human B7H3 protein
T5 sequence (looked up): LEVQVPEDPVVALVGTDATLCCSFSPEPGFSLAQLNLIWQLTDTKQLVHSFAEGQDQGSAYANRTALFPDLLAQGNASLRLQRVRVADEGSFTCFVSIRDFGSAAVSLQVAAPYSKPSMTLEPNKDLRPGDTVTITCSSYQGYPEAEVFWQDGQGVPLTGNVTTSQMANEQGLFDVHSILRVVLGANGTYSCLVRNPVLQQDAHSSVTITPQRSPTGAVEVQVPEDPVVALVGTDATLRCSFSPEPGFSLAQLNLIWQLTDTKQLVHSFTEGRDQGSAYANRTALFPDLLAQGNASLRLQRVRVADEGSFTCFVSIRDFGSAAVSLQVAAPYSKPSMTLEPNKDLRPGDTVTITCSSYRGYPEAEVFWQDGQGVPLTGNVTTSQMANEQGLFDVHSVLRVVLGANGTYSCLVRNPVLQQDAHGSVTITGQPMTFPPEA
Method in brief: as §1

[11] = target: Non-relevant antigen; assay: phage ELISA, cross-species
Method in brief: as §1

[12] = target: PD-L1; assay: ELISA, purified VHH, cross-reaction
PD-L1, sequence (Q9NZQ7 whole entry): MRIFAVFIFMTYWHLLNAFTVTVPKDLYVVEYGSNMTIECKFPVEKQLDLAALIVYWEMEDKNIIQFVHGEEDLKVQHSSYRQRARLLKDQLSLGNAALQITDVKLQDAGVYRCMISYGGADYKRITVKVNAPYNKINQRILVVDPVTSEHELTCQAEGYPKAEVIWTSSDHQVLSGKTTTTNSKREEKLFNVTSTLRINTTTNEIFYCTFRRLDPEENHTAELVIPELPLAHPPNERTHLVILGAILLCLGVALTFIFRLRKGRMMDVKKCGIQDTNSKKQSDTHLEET

[13] = target: T6, B7H3-hFc (human, UniProt Q5ZPR3 29-456); assay: ELISA, B7H3-hFc coated, VH-His-FLAG detected with anti-FLAG-HRP
T6 construct: also called recombinant B7H3-hFc; B7H3 ECD fused with human IgG1 Fc; not shown: human IgG1 Fc
T6 sequence: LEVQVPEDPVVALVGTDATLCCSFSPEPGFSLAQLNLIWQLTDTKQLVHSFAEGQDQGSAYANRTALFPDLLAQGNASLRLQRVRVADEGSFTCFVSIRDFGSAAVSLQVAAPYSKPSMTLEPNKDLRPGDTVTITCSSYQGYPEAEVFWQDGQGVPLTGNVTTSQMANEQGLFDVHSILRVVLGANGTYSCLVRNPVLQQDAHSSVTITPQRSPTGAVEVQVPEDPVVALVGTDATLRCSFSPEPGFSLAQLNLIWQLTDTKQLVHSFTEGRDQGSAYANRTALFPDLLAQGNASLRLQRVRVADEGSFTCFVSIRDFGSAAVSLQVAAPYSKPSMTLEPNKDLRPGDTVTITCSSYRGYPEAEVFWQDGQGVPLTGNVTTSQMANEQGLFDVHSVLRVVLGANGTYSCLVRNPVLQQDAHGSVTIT
Text: FIGS. 4A-4C: Binding properties of the B7H3 binders. (FIG. 4A) SDS-PAGE analysis of the purified A1 and B1 binders (VH-His-FLAG fusion) from E. coli. Two micrograms of purified B7H3-hFc, non-reduced (Non.) or reduced (Red.) by β-mercaptoethanol, were separated on an 8% SDS-PAGE gel. Protein bands were visualized by Coomassie blue R-250 staining. (FIG. 4B) Protein binding affinity measurement by ELISA. Five micrograms of B7H3-hFc were coated on the ELISA plate, and different concentrations of domain antibodies were incubated with the plate, and binding was detected by HRP conjugated anti-FLAG mouse monoclonal antibody M2. The binding curves were plotted using the software GraphPad Prism and the calculated EC50 values were determined by the software's algorithm of hyperbola one site binding. (FIG. 4C) Cell binding determination by flow cytometry. Ten microgram per mL domain antibody was co-incubated with one million cells. Antibody binding was visualized by APC conjugated anti-FLAG monoclonal antibody. The curves labelled “1” represent cells stained with secondary antibody only; the curves labelled “2” represent cells stained with A1 or B1 domain antibody.
The VH coding sequences of binders A1 and B1 were fused with His-FLAG tag at their C-termini and cloned into an E. coli expression vector. […] The purified yield was 2 mg/L (A1) and 10 mg/L fermentation (B1) respectively. […]

Binder | ELISA signal [1] | binding result [2] | ELISA signal [3] | ELISA signal [4] | ELISA signal [5] | ELISA signal [6] | ELISA signal [7] | ELISA signal [8] | ELISA signal [9] | ELISA signal [10] | ELISA signal [11] | ELISA signal [12] | EC50 [13] [nM]
RWB2 (VHH, Camel VHH; tag not described; also called camel antibody RWB2) VHH: AVQLVDSGGGSVQAGGSLRLSCVVSGYAFSTYDMAWFRQAPGEKCEWVSTVTNNGRTFYADSVKGRFIISRDNAKNILYLQMNSLKPEDTAVYSCAAAGVRWRCASGGNEGTQVTVSS | 0.0777 | no binding | 0.0799 | 0.152 | 0.0986 | 0.115 | 0.578 | 0.981 | 1.05 | 2.53 | 0.0684 | 0.0522 | –
RFB1 (other, Rabbit VH single-domain antibody expressed in E. coli as VH-His-FLAG fusion; also called rabbit antibody RFB1; R1-B1; not shown: 6x His tag and FLAG tag at the C-terminus) VH: QEQLKESGGRLVTPGTPLTLTCTVSGFSPNNYGVSWVRQPPGKGLEWIGMSSTAGATYYANWAKGRFTISKTSTTVDLEITSPTTEDTATYFCAKGTPSLSYGNIWGPGTLVTVSSGGGGSGGGGSGGGGSAQGPTQTPGGGGSGTEVVVK | – | – | – | – | – | – | – | – | – | – | – | – | 189

Reference: patent US20220380471A1 (US Dept. of Health and Human Services, published 2022)
